This is an account of results in PMC4978539.

What all share (test): proximity ligation
Assay [1] addresses HIV-1 Gag with the CA mutations Q7A/Q9A, expressed from a proviral point mutant (HIV-1).
In assay [2] the target is HIV-1 Gag, wild type, expressed from the proviral clone pNL4-3 (HIV-1).
In assay [3] the target is HIV-1 Gag with the CA mutation G89A, expressed from a proviral point mutant (HIV-1).
The next assay has as its target mCh-GagQ7A/Q9A (HIV-1).
In a further assay the target is mCherry-Gag (HIV-1).

Sequence of Cyclophilin A (P62937 whole entry): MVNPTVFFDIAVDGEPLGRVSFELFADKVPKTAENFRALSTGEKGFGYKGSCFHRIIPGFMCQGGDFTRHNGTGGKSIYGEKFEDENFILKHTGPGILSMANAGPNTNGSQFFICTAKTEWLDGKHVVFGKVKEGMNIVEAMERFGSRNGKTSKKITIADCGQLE
Sequence of Ras-GAP SH3 domain-binding protein (G3BP1), endogenous (Q13283 whole entry, the tested form may be a part): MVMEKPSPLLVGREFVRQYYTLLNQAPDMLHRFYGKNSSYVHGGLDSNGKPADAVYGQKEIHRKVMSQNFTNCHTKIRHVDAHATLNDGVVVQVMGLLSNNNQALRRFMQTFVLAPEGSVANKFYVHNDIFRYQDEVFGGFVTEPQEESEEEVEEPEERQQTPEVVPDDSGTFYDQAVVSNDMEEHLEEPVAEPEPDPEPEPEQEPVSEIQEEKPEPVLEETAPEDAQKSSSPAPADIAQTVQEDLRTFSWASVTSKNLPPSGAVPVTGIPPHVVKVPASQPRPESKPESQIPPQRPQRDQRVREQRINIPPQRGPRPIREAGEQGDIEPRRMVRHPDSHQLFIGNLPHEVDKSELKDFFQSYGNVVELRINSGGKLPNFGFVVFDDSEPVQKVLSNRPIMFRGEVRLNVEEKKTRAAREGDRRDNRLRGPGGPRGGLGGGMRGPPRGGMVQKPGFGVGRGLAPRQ

As for “Cyclophilin A (from UniProt P62937 1-165) (natural protein)”, the figures for the PLA spots/cell in assay [1], in assay [2] and in assay [3] were 27.4 spots/cell, 60.3 spots/cell and 18.7 spots/cell, respectively.
Turning to “Ras-GAP SH3 domain-binding protein (G3BP1), endogenous (from UniProt Q13283 1-466) (natural protein)”, the PLA spots/cell with mCh-GagQ7A/Q9A (HIV-1) was 33.8 spots/cell; with mCherry-Gag (HIV-1), 107 spots/cell.
With “eukaryotic elongation factor 2, endogenous (from UniProt P13639 1-858) (natural protein)”, the PLA spots/cell in assay [1] was found to be 5.1 spots/cell; in assay [2], 11.6 spots/cell; in assay [3] it was 3.44 spots/cell.
